Read-outs that look alike come from different tables or passages of the source. *1 amine or outer side, *2 acyl side, *3 side chain or, on linkers, in order; H or OH if unused. Bridges are numbered along the chain shown (N, C = ends). TBMB = c1c(C[*:1])cc(C[*:3])cc1C[*:2]
B1: TBMB modified synthetic peptide PK4 (bi-cyclic peptide) (peptide)
peptide: H-ACSTERRYCPIEIFPCG-NH2
modifications: linker 2-9-16 via TBMB
SMILES: CC[C@H](C)[C@@H]1NC(=O)[C@H](CCC(=O)O)NC(=O)[C@H]([C@@H](C)CC)NC(=O)[C@@H]2CCCN2C(=O)[C@@H]2CSCc3cc(cc(c3)CSC[C@@H](C(=O)NCC(N)=O)NC(=O)[C@@H]3CCCN3C(=O)[C@H](Cc3ccccc3)NC1=O)CSC[C@H](NC(=O)[C@H](C)N)C(=O)N[C@@H](CO)C(=O)N[C@@H]([C@@H](C)O)C(=O)N[C@@H](CCC(=O)O)C(=O)N[C@@H](CCCNC(=N)N)C(=O)N[C@@H](CCCNC(=N)N)C(=O)N[C@@H](Cc1ccc(O)cc1)C(=O)N2
B2: TBMB modified peptide PK15 (bi-cyclic peptide) (peptide)
peptide: H-ACSDRFRNCPADEALCG-NH2
modifications: linker 2-9-16 via TBMB
notes: Chemically synthesized 17-mer reacted with TBMB; also called conjugate PK15; peptide conjugate PK15
B3: linear synthetic peptide PK2 (not TBMB modified) (peptide)
peptide: H-ACSDRFRNCPLWSGTCG-NH2
modifications: cysteine pairing not given here
B4: linear synthetic peptide PK4 (not TBMB modified) (peptide)
peptide: H-ACSTERRYCPIEIFPCG-NH2
modifications: cysteine pairing not given here
B5: linear synthetic peptide PK15 (not TBMB modified) (peptide)
peptide: H-ACSDRFRNCPADEALCG-NH2
modifications: cysteine pairing not given here
B6: TBMB modified synthetic peptide PK2 (bi-cyclic peptide) (peptide)
peptide: H-ACSDRFRNCPLWSGTCG-NH2
modifications: linker 2-9-16 via TBMB
SMILES: CC(C)C[C@@H]1NC(=O)[C@@H]2CCCN2C(=O)[C@@H]2CSCc3cc(cc(c3)CSC[C@@H](C(=O)NCC(N)=O)NC(=O)[C@H]([C@@H](C)O)NC(=O)CNC(=O)[C@H](CO)NC(=O)[C@H](Cc3c[nH]c4ccccc34)NC1=O)CSC[C@H](NC(=O)[C@H](C)N)C(=O)N[C@@H](CO)C(=O)N[C@@H](CC(=O)O)C(=O)N[C@@H](CCCNC(=N)N)C(=O)N[C@@H](Cc1ccccc1)C(=O)N[C@@H](CCCNC(=N)N)C(=O)N[C@@H](CC(N)=O)C(=O)N2
B7: TBMB modified peptide PK15 hydrolysed in one binding loop by human plasma kallikrein (peptide)
peptide: H-ACSDRFRNCPADEALCG-NH2
modifications: linker 2-9-16 via TBMB; also: one peptide bond in a loop hydrolysed, position not given here

Columns and labels:
[1] = target: T1, human plasma kallikrein (activated with factor XIIa) (human, UniProt P03952 20-638); test: cell-based or functional assay
human factor XIa = human factor XIa (human, UniProt P03951 19-625); test: cell-based or functional assay
[2] = target: recombinant mouse plasma kallikrein (activated with thermolysin) (mouse, UniProt P26262 20-638); test: cell-based or functional assay
human thrombin = human thrombin (human, UniProt P00734 328-622); test: cell-based or functional assay
[3] = target: T1, human plasma kallikrein (activated with …); test: cell-based or functional assay; remark: listed apart in the source
[4] = target: T1, human plasma kallikrein (activated with …); test: cell-based or functional assay; remark: listed apart in the source
[5] = target: T1, human plasma kallikrein (activated with …); test: apparent Ki calculated from the enzyme inhibition IC50 (fluorogenic substrate Z-Phe-Arg-AMC) with the Cheng and Prusoff equation

T1 sequence (P03952 20-638 limits assumed): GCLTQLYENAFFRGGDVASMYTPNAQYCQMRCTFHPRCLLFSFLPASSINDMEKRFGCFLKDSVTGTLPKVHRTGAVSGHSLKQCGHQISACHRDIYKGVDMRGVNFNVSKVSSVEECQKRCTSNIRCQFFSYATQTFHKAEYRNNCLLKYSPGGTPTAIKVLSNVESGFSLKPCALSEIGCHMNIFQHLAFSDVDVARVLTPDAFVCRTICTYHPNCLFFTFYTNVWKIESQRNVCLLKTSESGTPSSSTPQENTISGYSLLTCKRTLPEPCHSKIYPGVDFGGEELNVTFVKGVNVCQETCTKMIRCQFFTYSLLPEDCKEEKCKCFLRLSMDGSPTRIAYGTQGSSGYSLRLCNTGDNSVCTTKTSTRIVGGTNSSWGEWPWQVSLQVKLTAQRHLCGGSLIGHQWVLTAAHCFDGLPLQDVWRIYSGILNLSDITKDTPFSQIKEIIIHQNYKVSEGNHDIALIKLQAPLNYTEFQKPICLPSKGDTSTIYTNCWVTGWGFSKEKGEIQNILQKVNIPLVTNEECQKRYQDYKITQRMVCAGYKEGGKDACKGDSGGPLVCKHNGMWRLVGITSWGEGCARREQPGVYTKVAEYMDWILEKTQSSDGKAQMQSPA
Sequence of recombinant mouse plasma kallikrein (activated with thermolysin) (P26262 20-638 limits assumed): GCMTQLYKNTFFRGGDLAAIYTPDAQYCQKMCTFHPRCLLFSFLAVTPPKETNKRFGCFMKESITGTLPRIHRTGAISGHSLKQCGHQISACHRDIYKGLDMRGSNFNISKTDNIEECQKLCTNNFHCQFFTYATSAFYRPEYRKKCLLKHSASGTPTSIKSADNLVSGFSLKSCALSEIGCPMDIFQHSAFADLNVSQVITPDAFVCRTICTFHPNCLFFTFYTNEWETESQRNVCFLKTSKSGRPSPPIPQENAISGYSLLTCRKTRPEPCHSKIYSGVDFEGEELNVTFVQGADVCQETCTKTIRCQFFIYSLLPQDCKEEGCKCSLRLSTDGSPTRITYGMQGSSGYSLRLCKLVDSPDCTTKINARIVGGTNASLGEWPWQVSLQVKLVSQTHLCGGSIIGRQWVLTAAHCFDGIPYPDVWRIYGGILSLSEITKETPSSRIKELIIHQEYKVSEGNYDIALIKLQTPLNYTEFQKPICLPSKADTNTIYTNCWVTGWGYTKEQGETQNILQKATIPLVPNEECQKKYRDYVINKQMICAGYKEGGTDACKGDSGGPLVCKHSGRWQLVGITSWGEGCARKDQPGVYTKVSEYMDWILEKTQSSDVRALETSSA

Binder	IC50 (nM), residual enzyme activity [1] [nM]	inhibitory activity (residual enzyme activity) (human factor XIa) [µM]	inhibitory activity (residual enzyme activity) [2] [µM]	inhibitory activity (residual enzyme activity) (human thrombin) [µM]	IC50 (nM), residual enzyme activity [3] [nM]	IC50, residual enzyme activity [4] [nM]	Ki [5] [nM]
B1	33	> 10	> 10	> 10	33	–	–
B2	1.7	–	–	–	1.7	1.6	1.5
B3	> 10000	–	–	–	> 10000	–	–
B4	7180	–	–	–	7180	–	–
B5	> 10000	–	–	–	> 10000	–	–
B6	28.6	> 10	> 10	> 10	28.6	–	–
B7	–	–	–	–	–	2.2	–

— patent US20150166988A1 (Bicycle, published 2015)
